Laboratory results reported in patent US20190361034A1.

What was measured:
[1] = biological target: MHC class II molecules on MHC class II-expressing Raji cells (human); test: direct ELISA, plate-immobilised Raji cells; 5% BSA, 10,000 cells; 500 ng/ml
[2] = biological target: MHC class II molecules on MHC class II-expressing Raji cells (human); test: direct ELISA, plate-immobilised Raji cells; 5% BSA, 10,000 cells; 62.5 ng/ml
[3] = biological target: MHC class II molecules on MHC class II-expressing Raji cells (human); test: direct ELISA, plate-immobilised Raji cells; 5% BSA, 2,500 cells; 500 ng/ml
[4] = biological target: MHC class II molecules on MHC class II-expressing Raji cells (human); test: direct ELISA, plate-immobilised Raji cells; 10% FBS, 5,000 cells; 1000 ng/ml
[5] = biological target: MHC class II molecules on MHC class II-expressing Raji cells (human); test: direct ELISA, plate-immobilised Raji cells; 10% FBS, 10,000 cells; 1000 ng/ml
[6] = biological target: MHC class II molecules on MHC class II-expressing Raji cells (human); test: direct ELISA, plate-immobilised Raji cells; 5% BSA, 5,000 cells; 1000 ng/ml
[7] = biological target: MHC class II molecules on MHC class II-expressing Raji cells (human); test: direct ELISA, plate-immobilised Raji cells; 5% BSA, 5,000 cells; 31.25 ng/ml
[8] = biological target: MHC class II molecules on MHC class II-expressing Raji cells (human); test: transfer cell ELISA, Raji cells; 15.63 ng/ml; plate row D
[9] = biological target: MHC class II molecules on MHC class II-expressing Raji cells (human); test: transfer cell ELISA, Raji cells; 15.63 ng/ml; plate row C
[10] = biological target: MHC class II molecules on MHC class II-expressing Raji cells (human); test: direct ELISA, plate-immobilised Raji cells; 5% BSA, 2,500 cells; 31.25 ng/ml
[11] = biological target: MHC class II molecules on MHC class II-expressing Raji cells (human); test: direct ELISA, plate-immobilised Raji cells; 10% FBS, 2,500 cells; 62.5 ng/ml
[12] = biological target: MHC class II molecules on MHC class II-expressing Raji cells (human); test: direct ELISA, plate-immobilised Raji cells; 10% FBS, 2,500 cells; 31.25 ng/ml
[13] = biological target: MHC class II molecules on MHC class II-expressing Raji cells (human); test: direct ELISA, plate-immobilised Raji cells; 5% BSA, 2,500 cells; 125 ng/ml
[14] = biological target: MHC class II molecules on MHC class II-expressing Raji cells (human); test: direct ELISA, plate-immobilised Raji cells; 5% BSA, 5,000 cells; 15.625 ng/ml
[15] = biological target: MHC class II molecules on MHC class II-expressing Raji cells (human); test: direct ELISA, plate-immobilised Raji cells; 10% FBS, 10,000 cells; 62.5 ng/ml
[16] = biological target: MHC class II molecules on MHC class II-expressing Raji cells (human); test: direct ELISA, plate-immobilised Raji cells; 0.5% Casein, 10,000 cells; 15.625 ng/ml
[17] = biological target: MHC class II molecules on MHC class II-expressing Raji cells (human); test: direct ELISA, plate-immobilised Raji cells; 3% gelatin, 2,500 cells; 31.25 ng/ml
[18] = biological target: MHC class II molecules on MHC class II-expressing Raji cells (human); test: direct ELISA, plate-immobilised Raji cells; 3% gelatin, 2,500 cells; 500 ng/ml
[19] = biological target: MHC class II molecules on MHC class II-expressing Raji cells (human); test: transfer cell ELISA, Raji cells; 0.977 ng/ml
[20] = biological target: MHC class II molecules on MHC class II-expressing Raji cells (human); test: direct ELISA, plate-immobilised Raji cells; 3% gelatin, 10,000 cells; 15.625 ng/ml
[21] = biological target: MHC class II molecules on MHC class II-expressing Raji cells (human); test: direct ELISA, plate-immobilised Raji cells; 3% gelatin, 5,000 cells; 125 ng/ml
[22] = biological target: MHC class II molecules on MHC class II-expressing Raji cells (human); test: direct ELISA, plate-immobilised Raji cells; 3% gelatin, 10,000 cells; 1000 ng/ml
[23] = biological target: MHC class II molecules on MHC class II-expressing Raji cells (human); test: BLI; IMP321 sample at 100% binding potency, Raji cells in solution; relative to reference standard
[24] = biological target: MHC class II molecules on MHC class II-expressing Raji cells (human); test: direct ELISA, plate-immobilised Raji cells; 0.5% Casein, 2,500 cells; 15.625 ng/ml
[25] = biological target: MHC class II molecules on MHC class II-expressing Raji cells (human); test: direct ELISA, plate-immobilised Raji cells; 3% gelatin, 5,000 cells; 15.625 ng/ml
[26] = biological target: MHC class II molecules on MHC class II-expressing Raji cells (human); test: direct ELISA, plate-immobilised Raji cells; 3% gelatin, 10,000 cells; 250 ng/ml
[27] = biological target: MHC class II molecules on MHC class II-expressing Raji cells (human); test: transfer cell ELISA, Raji cells; 125 ng/ml
[28] = biological target: MHC class II molecules on MHC class II-expressing Raji cells (human); test: direct ELISA, plate-immobilised Raji cells; 0.5% Casein, 10,000 cells; 500 ng/ml
[29] = biological target: MHC class II molecules on MHC class II-expressing Raji cells (human); test: transfer cell ELISA, Raji cells; 31.25 ng/ml
[30] = biological target: MHC class II molecules on MHC class II-expressing Raji cells (human); test: direct ELISA, plate-immobilised Raji cells; 0.5% Casein, 10,000 cells; 250 ng/ml
[31] = biological target: MHC class II molecules on MHC class II-expressing Raji cells (human); test: direct ELISA, plate-immobilised Raji cells; 0.5% Casein, 2,500 cells; 62.5 ng/ml
[32] = biological target: MHC class II molecules on MHC class II-expressing Raji cells (human); test: direct ELISA, plate-immobilised Raji cells; 3% gelatin, 10,000 cells; 500 ng/ml
[33] = biological target: MHC class II molecules on MHC class II-expressing Raji cells (human); test: BLI; IMP321 sample diluted from reference standard to 75% binding potency, Raji cells in solution; relative to reference standard

IMP321 treated with Peptide-N-Glycosidase F (PNGase F) (Fc fusion)
OD (ELISA signal) [1]: 1.3 OD
OD (ELISA signal) [2]: 0.283 OD
OD (ELISA signal) [3]: 1.32 OD
OD (ELISA signal) [4]: 2.25 OD
OD (ELISA signal) [5]: 1.34 OD
OD (ELISA signal) [6]: 1.81 OD
OD (ELISA signal) [7]: 0.297 OD
OD (ELISA signal) [8]: 0.029 OD
OD (ELISA signal) [9]: 0.035 OD
OD (ELISA signal) [10]: 0.304 OD
OD (ELISA signal) [11]: 0.329 OD
OD (ELISA signal) [12]: 0.294 OD
OD (ELISA signal) [13]: 0.415 OD
OD (ELISA signal) [14]: 0.274 OD
OD (ELISA signal) [15]: 0.29 OD

IMP321, recombinant soluble human LAG-3Ig fusion protein (Fc fusion)
OD (ELISA signal) [16]: 0.185 OD
OD (ELISA signal) [17]: 0.303 OD
OD (ELISA signal) [18]: 2.56 OD
OD (ELISA signal) [19]: 0.018 OD
OD (ELISA signal) [20]: 0.361 OD
OD (ELISA signal) [21]: 0.823 OD
OD (ELISA signal) [22]: 1.97 OD
Potency determined by BLI assay [23]: 98%
OD (ELISA signal) [24]: 0.168 OD
OD (ELISA signal) [25]: 0.316 OD
OD (ELISA signal) [26]: 1.39 OD
OD (ELISA signal) [27]: 0.475 OD
OD (ELISA signal) [28]: 0.188 OD
OD (ELISA signal) [29]: 0.159 OD
OD (ELISA signal) [30]: 0.241 OD
OD (ELISA signal) [31]: 0.135 OD
OD (ELISA signal) [32]: 1.55 OD
Potency determined by BLI assay [33]: 80%
